What follows are binders tested against T1, FcγRIIIa (human, UniProt P08637 17-208) (assay: SPR (Biacore);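 note: antibody variants captured on an SPR sensor chip, with FcγRIIIa passed over as analyte in HBS-EP+ buffer at 25 °C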).
T1 construct: extracellular domain; also called 3a; FcγRIIIa extracellular domain
T1 sequence (P08637 other isoform, or with tags, fused parts or gaps): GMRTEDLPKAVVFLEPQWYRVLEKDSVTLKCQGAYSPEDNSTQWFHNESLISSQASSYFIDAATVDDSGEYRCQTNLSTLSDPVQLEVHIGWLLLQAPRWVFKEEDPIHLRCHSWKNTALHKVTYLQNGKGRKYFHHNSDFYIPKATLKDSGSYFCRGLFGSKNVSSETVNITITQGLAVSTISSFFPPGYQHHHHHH

Binder	He/Con 3a
GpH7-A5/GpH7-B3 variant Y296_03V/GpL16-k0 (antibody, human IgG1, kappa, copies: 1 + 1 + 2) heavy 1: not shown heavy 2: not shown light: DIVMTQSPLSLPVTPGEPASISCQASESLVHSNRNTYLHWYLQKPGQSPQLLIYKVSNRFSGVPDRFSGSGSGTDFTLKISRVEAEDVGVYYCSQNTHVPPTFGQGTKVEIERTVAAPSVFIFPPSDEQLKSGTASVVCLLNNFYPREAKVQWKVDNALQSGNSQESVTEQDSKDSTYSLSSTLTLSKADYEKHKVYACEVTHQGLSSPVTKSFNRGEC	69.1 % of GpH7-A5/GpH7-B3/GpL16-k0
GpH7-A5/GpH7-B3 variant Y300_07I/GpL16-k0 (antibody, human IgG1, kappa, copies: 1 + 1 + 2) heavy 1: not shown heavy 2: not shown light: DIVMTQSPLSLPVTPGEPASISCQASESLVHSNRNTYLHWYLQKPGQSPQLLIYKVSNRFSGVPDRFSGSGSGTDFTLKISRVEAEDVGVYYCSQNTHVPPTFGQGTKVEIERTVAAPSVFIFPPSDEQLKSGTASVVCLLNNFYPREAKVQWKVDNALQSGNSQESVTEQDSKDSTYSLSSTLTLSKADYEKHKVYACEVTHQGLSSPVTKSFNRGEC	103 % of GpH7-A5/GpH7-B3/GpL16-k0
GpH7-A5/GpH7-B3 variant Y300_01G/GpL16-k0 (antibody, human IgG1, kappa, copies: 1 + 1 + 2) heavy 1: not shown heavy 2: not shown light: DIVMTQSPLSLPVTPGEPASISCQASESLVHSNRNTYLHWYLQKPGQSPQLLIYKVSNRFSGVPDRFSGSGSGTDFTLKISRVEAEDVGVYYCSQNTHVPPTFGQGTKVEIERTVAAPSVFIFPPSDEQLKSGTASVVCLLNNFYPREAKVQWKVDNALQSGNSQESVTEQDSKDSTYSLSSTLTLSKADYEKHKVYACEVTHQGLSSPVTKSFNRGEC	88.6 % of GpH7-A5/GpH7-B3/GpL16-k0
GpH7-A5/GpH7-B3 variant Y296_06M/GpL16-k0 (antibody, human IgG1, kappa, copies: 1 + 1 + 2) heavy 1: not shown heavy 2: not shown light: DIVMTQSPLSLPVTPGEPASISCQASESLVHSNRNTYLHWYLQKPGQSPQLLIYKVSNRFSGVPDRFSGSGSGTDFTLKISRVEAEDVGVYYCSQNTHVPPTFGQGTKVEIERTVAAPSVFIFPPSDEQLKSGTASVVCLLNNFYPREAKVQWKVDNALQSGNSQESVTEQDSKDSTYSLSSTLTLSKADYEKHKVYACEVTHQGLSSPVTKSFNRGEC	74.6 % of GpH7-A5/GpH7-B3/GpL16-k0
GpH7-A5/GpH7-B3 variant Y300_08L/GpL16-k0 (antibody, human IgG1, kappa, copies: 1 + 1 + 2) heavy 1: not shown heavy 2: not shown light: DIVMTQSPLSLPVTPGEPASISCQASESLVHSNRNTYLHWYLQKPGQSPQLLIYKVSNRFSGVPDRFSGSGSGTDFTLKISRVEAEDVGVYYCSQNTHVPPTFGQGTKVEIERTVAAPSVFIFPPSDEQLKSGTASVVCLLNNFYPREAKVQWKVDNALQSGNSQESVTEQDSKDSTYSLSSTLTLSKADYEKHKVYACEVTHQGLSSPVTKSFNRGEC	114 % of GpH7-A5/GpH7-B3/GpL16-k0
GpH7-A5/GpH7-B3 variant Y296_20W/GpL16-k0 (antibody, human IgG1, kappa, copies: 1 + 1 + 2) heavy 1: not shown heavy 2: not shown light: DIVMTQSPLSLPVTPGEPASISCQASESLVHSNRNTYLHWYLQKPGQSPQLLIYKVSNRFSGVPDRFSGSGSGTDFTLKISRVEAEDVGVYYCSQNTHVPPTFGQGTKVEIERTVAAPSVFIFPPSDEQLKSGTASVVCLLNNFYPREAKVQWKVDNALQSGNSQESVTEQDSKDSTYSLSSTLTLSKADYEKHKVYACEVTHQGLSSPVTKSFNRGEC	127 % of GpH7-A5/GpH7-B3/GpL16-k0
GpH7-A5/GpH7-B3 variant Y296_19Q/GpL16-k0 (antibody, human IgG1, kappa, copies: 1 + 1 + 2) heavy 1: not shown heavy 2: not shown light: DIVMTQSPLSLPVTPGEPASISCQASESLVHSNRNTYLHWYLQKPGQSPQLLIYKVSNRFSGVPDRFSGSGSGTDFTLKISRVEAEDVGVYYCSQNTHVPPTFGQGTKVEIERTVAAPSVFIFPPSDEQLKSGTASVVCLLNNFYPREAKVQWKVDNALQSGNSQESVTEQDSKDSTYSLSSTLTLSKADYEKHKVYACEVTHQGLSSPVTKSFNRGEC	71.4 % of GpH7-A5/GpH7-B3/GpL16-k0
GpH7-A5/GpH7-B3 variant Y300_09D/GpL16-k0 (antibody, human IgG1, kappa, copies: 1 + 1 + 2) heavy 1: not shown heavy 2: not shown light: DIVMTQSPLSLPVTPGEPASISCQASESLVHSNRNTYLHWYLQKPGQSPQLLIYKVSNRFSGVPDRFSGSGSGTDFTLKISRVEAEDVGVYYCSQNTHVPPTFGQGTKVEIERTVAAPSVFIFPPSDEQLKSGTASVVCLLNNFYPREAKVQWKVDNALQSGNSQESVTEQDSKDSTYSLSSTLTLSKADYEKHKVYACEVTHQGLSSPVTKSFNRGEC	104 % of GpH7-A5/GpH7-B3/GpL16-k0
GpH7-A5/GpH7-B3 variant Y300_06M/GpL16-k0 (antibody, human IgG1, kappa, copies: 1 + 1 + 2) heavy 1: not shown heavy 2: not shown light: DIVMTQSPLSLPVTPGEPASISCQASESLVHSNRNTYLHWYLQKPGQSPQLLIYKVSNRFSGVPDRFSGSGSGTDFTLKISRVEAEDVGVYYCSQNTHVPPTFGQGTKVEIERTVAAPSVFIFPPSDEQLKSGTASVVCLLNNFYPREAKVQWKVDNALQSGNSQESVTEQDSKDSTYSLSSTLTLSKADYEKHKVYACEVTHQGLSSPVTKSFNRGEC	106 % of GpH7-A5/GpH7-B3/GpL16-k0
GpH7-A5/GpH7-B3 variant Y296_16H/GpL16-k0 (antibody, human IgG1, kappa, copies: 1 + 1 + 2) heavy 1: not shown heavy 2: not shown light: DIVMTQSPLSLPVTPGEPASISCQASESLVHSNRNTYLHWYLQKPGQSPQLLIYKVSNRFSGVPDRFSGSGSGTDFTLKISRVEAEDVGVYYCSQNTHVPPTFGQGTKVEIERTVAAPSVFIFPPSDEQLKSGTASVVCLLNNFYPREAKVQWKVDNALQSGNSQESVTEQDSKDSTYSLSSTLTLSKADYEKHKVYACEVTHQGLSSPVTKSFNRGEC	69.1 % of GpH7-A5/GpH7-B3/GpL16-k0
GpH7-A5/GpH7-B3 variant Y296_13S/GpL16-k0 (antibody, human IgG1, kappa, copies: 1 + 1 + 2) heavy 1: not shown heavy 2: not shown light: DIVMTQSPLSLPVTPGEPASISCQASESLVHSNRNTYLHWYLQKPGQSPQLLIYKVSNRFSGVPDRFSGSGSGTDFTLKISRVEAEDVGVYYCSQNTHVPPTFGQGTKVEIERTVAAPSVFIFPPSDEQLKSGTASVVCLLNNFYPREAKVQWKVDNALQSGNSQESVTEQDSKDSTYSLSSTLTLSKADYEKHKVYACEVTHQGLSSPVTKSFNRGEC	58.1 % of GpH7-A5/GpH7-B3/GpL16-k0

— patent US20260167699A1 (Chugai, published 2026)
